Experiment [1] addresses Res 4 (SDTV) Env from HIV-1 strain HXB2 (HIV-1 strain HXB2) (UniProt P04578). Kind of experiment: cell-based or functional assay.
In experiment [2] the target is wild type Env (gp120/gp41) from HIV-1 strain HXB2 (HIV-1 strain HXB2) (UniProt P04578). Kind of experiment: cell-based or functional assay.

The values that follow come from US20100029568A1, “TIGHTER-BINDING C-PEPTIDE INHIBITORS OF HIV-1 ENTRY” (priority 2007, published 2010).

On to T20 (peptide), for which the results for the IC50, nM; inhibitory potency against pseudotyped HIV-1 in experiment [1] and in experiment [2] were 900 nM and 2.3 nM, respectively.
